Data: article PMC4259466
Blank lines part the entries; values can stand above or below the substance they belong to.

How the values were obtained:
ROCK2 = ROCK2 (UniProt O75116); assay: GST-MLC2 pull-down from HeLa lysate; settings: sites Y118
MLC2 = MLC2 (UniProt P10916); assay: His-PKM2 bead pull-down of GST-MLC2; settings: reference: WT His-PKM2 without Aurora B; sites T45

binding against the reference (ROCK2; reference: GST-MLC2 wild type): lost
Substance: MLC2 (from UniProt P10916) GST-MLC2 Y118F

binding against the reference (ROCK2; reference: GST-MLC2 with PKM2, no PEP): stronger
Substance: MLC2 (from UniProt P10916) GST-MLC2 with PKM2 and PEP

binding against the reference (MLC2): stronger
Substance: PKM2 (from UniProt P14618) WT His-PKM2 treated with Aurora B
